Columns and labels:
[1] = test system: MS2 coat protein; assay: apparent KD of MS2 coat protein, switch OFF state (with FMN for OFF switches, without FMN for ON switches); designed switch direction (-1 OFF switch, 1 ON switch): -1; higher = weaker reporter binding; conditions: FMN input: 0 or 200 uM; Eterna round: R93 (includes R88 designs)
Outline: (§1)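 Apparent KD was obtained for each design as the median of normalised binding-curve fits over its clusters. RNA switches transcribed on-chip from Illumina sequencing clusters were titrated with SNAP-549-labelled MS2 coat protein (twofold steps, 0.7 or 1.5 nM to 3 µM) in 100 mM Tris-HCl pH 7.5, 80 mM KCl, 4 mM MgCl2, without or with constant ligand.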

[2] = test system: MS2 coat protein; assay: apparent KD of MS2 coat protein, switch ON state; designed switch direction (-1 OFF switch, 1 ON switch): -1; higher = weaker reporter binding; conditions: FMN input: 0 or 200 uM; Eterna round: R93 (includes R88 designs)
Outline: as §1

| Sequence | apparent KD of MS2 coat protein [1] [nM] | apparent KD of MS2 coat protein [2] [nM] |
| --- | --- | --- |
| UUAGAACAUGAGGAUCACCCAUGUGAGGAUAUGCAAUACUAGCGACAAGAUCGUUAUAGCAGAAGGCACGUAGU [JR_EXc001_Sub807] | 64.5 | 38.6 |
| AAAAAACAUGAGGAUCACCCAUGUGAGGAUAUGCGAAAAUAAAAUAAAAUAAUAAAAAGCAGAAGGCACAAAAA [58%, Sh'dynasty, 1] | 89.3 | 67.7 |
| GGAAAACAUGAGGAUCACCCAUGUCAGGAUAUGUGAAAAAAAAAAAAAAGAAAAGAAAACAGAAGGGACAAAAG [amethyst 6] | 23.2 | 80.8 |
| AGGAAACAUGAGGAUCACCCAUGUUAGGAUAUGAACGAAAAUAAAUAAAAAUAAAAGUUCAGAAGGGACAAAAA [66%, Wbt, 19] | 39.6 | 38.4 |
| AACUAGUCAGGAUAUACGAACAUGUCAAAAAACAUAAAGGGACAUGAGGAUCACCCAUGUAGAAGGGACUAGCA [74%, Web mod - With 4 less G's] | 262 | 161 |
| AACAGUACAGGAUAUACAUGAGGAUCACCCAUGUGAGAAUUAAGUGGAGUACCACAAAGUAGAAGGGUACUGGA [Mat - Exclusion 3 - JL mod - D4] | 202 | 28.9 |
| GCUGGCGAAGGAUAUACAUGAGGAUCACCCAUGUGAGAGAAAAAAGUGAGAAAGAAAAGUAGAAGGUCGUUAGG [salish99-ex3-96] | 70.4 | 31.7 |
| GAAAACAGAGGAUAUACGAAAUUGACACGAAAAGUGCAGGGACAUGAGGAUCACCCAUGUAGAAGGCUGAAGAA [Meechl MS2... 60% 1] | 48.2 | 27.7 |
| ACCAGACAUGAGGAUCACCCAUGUCAGGAUAUGCAUCUUAGGAAAAAAAAACUAAGAUGCAGAAGGGACAAGGG [Design 5: Super Stable - A-U mutation] | 20.1 | 16 |
| AAAAAGGCAGGAUAUACAUGAGGAUCACCCAUGUAAAAAAAAACAAGAGAAAAAAAAUGUAGAAGGGCCAAAAA [Ex3 Malc#3] | 26 | 26.8 |
| CUCAUGUUAGGAUAUUAAUGAAAUGAAGUGAAAGAAAAGAAUAAGAAGGAACAUGAGGAUCACCCAUGUUAGAA [EteRNA is fun!] | 25.2 | 69.3 |
| AAAAAACAUGAGGAUCACCCAUGUGAGGAUAUCCUGAAGGGAAUAAAAUAACUCGAAAGGAGAAGGCGCAAAAA [Ex 1 May 32] | 33 | 35.2 |
| CUUAUGUGAGGAUAUCAGUAGUAAAAAAAAAAAAUUACUACUGAGAAGGCACAUGAGGAUCACCCAUGUGCAUU [EX4 322: Super Stable 22] | 38.8 | 30.3 |
| AACAAACAUGAGGAUCACCCAUGUGAGGAUAUACAAACAAACAAAAACAAAACAAAAAGUAGAAGGCACAACAA [JR_Exc001_Sub002] | 18.9 | 19.4 |
| AAAAAGUGAGGAUAUAGCAAAGGUCACGAAAGUGACAAAGGCUAGAAGGCACAUGAGGAUCACCCAUGUCCAAG [Mat - Exclusion 4 - Eli mod - D98] | 56.5 | 28.6 |
| GCUGUGGAAGGAUAUACAUGAGGAUCACCCAUGUGAGAGAAAAAAGUGAGAAAGAAAAGUAGAAGGUCCGUAGG [salish99-ex3-98] | 66 | 40.3 |
| AAAUGACAUGAGGAUCACCCAUGUCAGGAUAUGACUUGAAAAUAAAAUAAAAAACAUGUCAGAAGGGACAUGAA [Design 49: Sub-opt EB] | 12.4 | 13.5 |
| AACUGACAUGAGGAUCACCCAUGUCAGGAUAUGAUUUGACGAAAAAAAAAAAGUCAUAUCAGAAGGGACAUGGG [Design 82: Sub-opt V] | 17.6 | 19 |
| AGUCGGCGAGGAUAUACAUGAGGAUCACCCAUGUGAGAGAAAAAAGUGAGAAAGAAAUGUAGAAGGCGCUGACA [JL Lego Mod 1] | 36.8 | 90.8 |
| AAAGAUACAGGAUAUACAUGAGGAUCACCCAUGUUAGACCAAAAAUGGGAAAAAGAAAGUAGAAGGGUAUAAAA [Ex 3 May 35] | 54.5 | 26 |
| AACAAGACAGGAUAUACAUGAGGAUCACCCAUGUCACAACAAAGCAGCGCAACACAAAGUAGAAGGGUCAUGAA [Ruby 12] | 46.9 | 45.1 |
| AACAGUACAGGAUAUACAUGAGGAUCACCCAUGUGAAAAUUAAGUGGGAAACCACAGUGUAGAAGGGUACUGAA [Mat - Exclusion 3 - Eli mod - D55] | 93 | 120 |
